According to IntAct's records for PubMed 29039417:

B1: BBSome complex member BBS2 (Homo sapiens), Q9BXC9 (parent)
chain: MLLPVFTLKLRHKISPRMVAIGRYDGTHPCLAAATQTGKVFIHNPHTRNQHVSASRVFQSPLESDVSLLSINQAVSCLTAGVLNPELGYDALLVGTQTNLLAYDVYNNSDLFYREVADGANAIVLGTLGDISSPLAIIGGNCALQGFNHEGSDLFWTVTGDNVNSLALCDFDGDGKKELLVGSEDFDIRVFKEDEIVAEMTETEIVTSLCPMYGSRFGYALSNGTVGVYDKTSRYWRIKSKNHAMSIHAFDLNSDGVNELITGWSNGKVDARSDRTGEVIFKDNFSSAIAGVVEGDYRMDGHIQLICCSVDGEIRGYLPGTAEMRGNLMDTSAEQDLIRELSQKKQNLLLELRNYEENAKAELASPLNEADGHRGIIPANTRLHTTLSVSLGNETQTAHTELRISTSNDTIIRAVLIFAEGIFTGESHVVHPSIHNLSSSICIPIVPPKDVPVDLHLKAFVGYRSSTQFHVFESTRQLPRFSMYALTSLDPASEPISYVNFTIAERAQRVVVWLGQNFLLPEDTHIQNAPFQVCFTSLRNGGHLHIKIKLSGEITINTDDIDLAGDIIQSMASFFAIEDLQVEADFPVYFEELRKVLVKVDEYHSVHQKLSADMADHSNLIRSLLVGAEDARLMRDMKTMKSRYMELYDLNRDLLNGYKIRCNNHTELLGNLKAVNQAIQRAGRLRVGKPKNQVITACRDAIRSNNINTLFKIMRVGTASS
partner: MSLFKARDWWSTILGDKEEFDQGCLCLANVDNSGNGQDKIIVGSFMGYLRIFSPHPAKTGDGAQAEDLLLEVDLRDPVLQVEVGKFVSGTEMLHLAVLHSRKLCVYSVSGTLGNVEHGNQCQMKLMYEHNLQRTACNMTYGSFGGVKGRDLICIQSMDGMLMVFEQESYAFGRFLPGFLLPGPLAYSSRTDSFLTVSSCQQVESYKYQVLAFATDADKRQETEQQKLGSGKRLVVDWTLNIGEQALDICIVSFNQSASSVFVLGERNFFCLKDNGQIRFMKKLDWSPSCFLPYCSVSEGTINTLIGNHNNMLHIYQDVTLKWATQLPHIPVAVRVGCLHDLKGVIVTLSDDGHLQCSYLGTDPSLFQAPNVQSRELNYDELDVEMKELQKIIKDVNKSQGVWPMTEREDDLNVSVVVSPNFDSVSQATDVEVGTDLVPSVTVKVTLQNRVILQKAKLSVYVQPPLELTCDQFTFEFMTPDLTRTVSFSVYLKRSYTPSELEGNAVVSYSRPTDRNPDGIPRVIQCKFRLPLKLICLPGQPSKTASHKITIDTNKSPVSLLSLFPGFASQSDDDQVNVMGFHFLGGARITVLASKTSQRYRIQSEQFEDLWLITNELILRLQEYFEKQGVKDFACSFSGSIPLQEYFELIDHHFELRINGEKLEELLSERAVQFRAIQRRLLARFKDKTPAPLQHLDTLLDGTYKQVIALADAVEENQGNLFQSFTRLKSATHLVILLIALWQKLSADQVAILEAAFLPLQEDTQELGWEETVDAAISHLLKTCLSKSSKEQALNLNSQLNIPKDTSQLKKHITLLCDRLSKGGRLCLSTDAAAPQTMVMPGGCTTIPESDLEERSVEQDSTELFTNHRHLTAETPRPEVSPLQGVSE

Variants of: B1
Conditions: with pthb1_human BBS9, Q3SYG4

Variant | effect of a mutation on the interaction
H399A | with no effect
R480E | with no effect
D559E | with no effect
D559A | with no effect
P495K | with no effect
I568K | with no effect
I695A | with no effect
D562A | disrupting interaction strength
D562E | with no effect
H384E | with no effect
G372A | with no effect
Y644E | with no effect
Y644A | with no effect
L478E | disrupting interaction strength
L341K | with no effect
K360A | with no effect
A564E | with no effect
E401A | with no effect
E401K | with no effect
A584E | with no effect
S390K | with no effect
H525K | with no effect
P448E | with no effect

Variant | effect of a mutation on the interaction
Y498E | with no effect
D585K | with no effect
T666E | with no effect
L669E | with no effect
L669K | with no effect
T386E | with no effect
R661K | with no effect
D579A | with no effect
T558E | with no effect
A414K | with no effect
A414E | with no effect
T400A | with no effect
A370K | with no effect
V446K | with no effect
N436E | with no effect
L633A | with no effect
V596K | with no effect
S642K | with no effect
S642A | with no effect
S570E | with no effect
S570A | with no effect
G565E | with no effect
T718E | with no effect

Variant | effect of a mutation on the interaction
L489A | with no effect
E629A | with no effect
I422K | with no effect
D336A | with no effect
S573K | with no effect
H373E | with no effect
G717A | with no effect
T555E | with no effect
V716A | with no effect
R476A | with no effect
T424E | with no effect
L350E | with no effect
Q608K | with no effect
A333E | with no effect
A572E | with no effect
L457C | disrupting interaction strength
S332E | with no effect
D560A | disrupting interaction strength
D330K | with no effect
I417K | with no effect
D490A | with no effect
R539A | with no effect
K638E | with no effect

Variant | effect of a mutation on the interaction
P366K | with no effect
E420K | with no effect
N619K | with no effect
N692K | with no effect
N692E | with no effect
I412A | with no effect
E667K | with no effect
N347A | with no effect
V499A | with no effect
I503A | with no effect
Q677L | disrupting interaction strength
F518A | with no effect
D371A | with no effect
I441A | with no effect
R382E | disrupting interaction strength
M714K | with no effect
I377K | with no effect
T381E | with no effect
Q516E | with no effect
S474K | disrupting interaction strength
I443K | disrupting interaction strength
